Reference: PMC11150655, “IpaA reveals distinct modes of vinculin activation during Shigella invasion and cell-matrix adhesion” (Life Science Alliance, 2024)
Changes are numbered by the printed parent chain.

Legend:
Conditions in all cases: both partners purified
[1] = biological target: T1, vinculin D1D2 (vinculin residues 1–484) (human, UniProt P18206 1-484); test: native gel or EMSA; band A′ cut from the CN-PAGE gel, run in a second dimension on SDS–PAGE, Coomassie staining and scanning densitometry of D1D2 and aVBD (N = 2)
T1 construct: vinculin, human, head subdomains D1 and D2, residues 1-484; Valencia-Gallardo et al, 2023) for the plasmid and the purification; also called WT; parental D1D2
T1 sequence (looked up): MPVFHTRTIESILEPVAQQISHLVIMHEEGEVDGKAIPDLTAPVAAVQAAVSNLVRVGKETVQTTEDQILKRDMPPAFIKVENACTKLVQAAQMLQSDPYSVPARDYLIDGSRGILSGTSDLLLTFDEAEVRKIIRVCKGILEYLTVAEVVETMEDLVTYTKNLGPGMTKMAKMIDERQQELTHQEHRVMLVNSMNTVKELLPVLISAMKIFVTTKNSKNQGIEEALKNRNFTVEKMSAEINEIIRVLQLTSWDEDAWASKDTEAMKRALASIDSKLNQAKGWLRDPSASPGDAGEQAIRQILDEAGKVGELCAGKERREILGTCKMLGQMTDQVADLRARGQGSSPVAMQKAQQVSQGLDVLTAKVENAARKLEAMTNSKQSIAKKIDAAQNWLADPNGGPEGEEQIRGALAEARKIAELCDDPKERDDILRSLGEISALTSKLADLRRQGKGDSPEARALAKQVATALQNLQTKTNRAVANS

vinculin D1D2 V367D = biological target: T2, vinculin D1D2 V367D (human, UniProt P18206 1-484, V367D); test: native gel or EMSA; CN-PAGE: D1D2 variant (20 μM) with increasing molar ratio of aVBD, 60 min at 21°C; 7.5% (Fig 2, methods) or 10% (Fig 3, S3) native polyacrylamide gel, Coomassie staining, scanning densitometry normalised to monomeric D1D2 without aVBD; rates from linear fits against the aVBD:D1D2 ratio
T2 construct: vinculin, human, head subdomains D1 and D2, residues 1-484, with V367D
T2 sequence (looked up): T1 sequence (looked up) with V367D

vinculin D1D2 E143K = biological target: T3, vinculin D1D2 E143K (human, UniProt P18206 1-484, E143K); test: as above
T3 construct: vinculin, human, head subdomains D1 and D2, residues 1-484, with E143K
T3 sequence (looked up): T1 sequence (looked up) with E143K

vinculin D1D2 D389R = biological target: T4, vinculin D1D2 D389R (human, UniProt P18206 1-484, D389R); test: as above
T4 construct: vinculin, human, head subdomains D1 and D2, residues 1-484, with D389R
T4 sequence (looked up): T1 sequence (looked up) with D389R

[2] = biological target: T1, vinculin D1D2 (vinculin residues 1–484); test: as above
vinculin D1D2 K139E = biological target: T5, vinculin D1D2 K139E (human, UniProt P18206 1-484, K139E); test: as above
T5 construct: vinculin, human, head subdomains D1 and D2, residues 1-484, with K139E
T5 sequence (looked up): T1 sequence (looked up) with K139E

vinculin D1D2 K386D = biological target: T6, vinculin D1D2 K386D (human, UniProt P18206 1-484, K386D); test: as above
T6 construct: vinculin, human, head subdomains D1 and D2, residues 1-484, with K386D
T6 sequence (looked up): T1 sequence (looked up) with K386D

vinculin D1D2 N393D = biological target: T7, vinculin D1D2 N393D (human, UniProt P18206 1-484, N393D); test: as above
T7 construct: vinculin, human, head subdomains D1 and D2, residues 1-484, with N393D
T7 sequence (looked up): T1 sequence (looked up) with N393D

B1: IpaA domain containing all three IpaA VBS1-3 (aVBD) (domain or fragment)
chain: GDTYLTRETIFEASKKVTNSLSNLISLIGTKSGTQERELQEKSKDITKSTTEHRINNKLKVTDANIRNYVTETNADTIDKNHAIYEKAKEVSSALSKVLSKIDDTSAELLTDDISDLKNNNDITAENNNIYKAAKDVTTSLSKVLKNINKD
notes: The plasmid is said to be described previously; also called A483; source: E. coli DH5-α, pGEX-4T2-aVBD, purified (GSTrap, thrombin on the column, SEC on Superdex 200)
stoichiometry N [1]: 3.2 D1D2:aVBD molar ratio | rate of monomer disappearance (vinculin D1D2 V367D): -0.88 AU^−1 | rate of monomer disappearance (vinculin D1D2 E143K): -0.88 AU^−1 | rate of monomer disappearance (vinculin D1D2 D389R): -1.06 AU^−1 | rate of monomer disappearance [2]: -1.06 AU^−1 | rate of monomer disappearance (vinculin D1D2 K139E): -1.42 AU^−1 | rate of monomer disappearance (vinculin D1D2 K386D): -1.29 AU^−1 | rate of monomer disappearance (vinculin D1D2 N393D): -1.32 AU^−1
